Assay [1] concerns the target T1, combined repetitive oligopeptide domain of C. difficile toxin A (residues 2304-2710, CROP) (Clostridium difficile, UniProt P16154 2304-2710).
T1 construct: range 2304-2710; also called AviTag-His6-CROP; TcdA CROP
Description: SPR, equilibrium analysis, biotinylated AviTag-His6-CROP captured on the chip. In general terms: Surface plasmon resonance follows binding to a sensor surface in real time, without labels.

For assay [2], the target named is T2, C. difficile toxin B glucosyltransferase domain (GTD, residues 2-543) (Clostridium difficile, UniProt P18177 2-543).
T2 construct: range 2-543; also called AviTag-His6-GTD; TcdB GTD
Description: ELISA on antigen-coated wells, anti-SBTI antibody detection.

The target of the next assay is hen egg lysozyme (HEL) (hen, UniProt P00698 19-147). As to the kind of experiment: ELISA, antigen-coated wells, 500 nM gastrobody, detected with polyclonal anti-SBTI antibody. Background: An ELISA detects its analyte on a solid surface through an enzyme-linked reagent.
In assay [3] the target is T2, C. difficile toxin B …. As to the kind of experiment: SPR, immobilised GTD.
Assay [4] addresses T2, C. difficile toxin B …. Description: SPR, immobilised GTD. This is another data set of the same source.
Assay [5] deals with T1, combined repetitive oligopeptide domain …. As to the kind of experiment: ELISA on antigen-coated wells, anti-SBTI antibody detection.
Assay [6] has as its target T2, C. difficile toxin B …. As to the kind of experiment: SPR, kinetic analysis, biotinylated AviTag-His6-GTD captured on the chip.
Assay [7] deals with T2, C. difficile toxin B ….
Another assay concerns the target T3, trypsin (cow, UniProt P00760 24-246).
T3 construct: also called trypsin from cow pancreas (T1426, Merck)
As to the kind of experiment: plate assay, trypsin-coated wells, bound gastrobody detected with biotinylated GTD and streptavidin-HRP.

The target in assay [8] is T2, C. difficile toxin B …. As to the kind of experiment: SPR, GTD.

Changes are numbered by the printed parent chain. Names and notes keep the numbering of the source.

B1: anti-CROP gastrobody G9 (designed binder, not shown: small tags and cut ends)
chain: DFVLDNEGNPLENGGTYYILSHPDLFGGIRAAPTGNERCPLTVVQSLYLFDKGIGTIISSPYRIRFIAEGHPLSLKFDSFAVIMLCVGIPTEWSVVEDLPEGPAVKIGENKDAMDGWFRLERVSDDEFNNYKLVFCPQQAEDDKCGDIGISIDHDDGTRRLVVSKNKPLVVQFQKLDKESL
Usually Kd stands for the constant that tells how readily two partners part at equilibrium. Turning to B1, the Kd in [1] came to 4600 nM.

B2: anti-CROP gastrobody T42 (designed binder, not shown: small tags and cut ends)
chain: B1 chain with H22V, D24H, L25Q, L47R, Y48N, L49K, F50W
For the molecule B2, the Kd in [1] was 7300 nM.

B3: anti-CROP gastrobody T12 (designed binder, not shown: small tags and cut ends)
chain: B1 chain with H22I, P23A, D24G, L25T, Y48V, L49F, F50P
notes: also called anti-CROP clone T12; anti-CROP (T12)
B3: the binding result is listed as “no binding (tested: 500 nM gastrobody)” in assay [2] and “no binding (tested: 500 nM)” with hen egg lysozyme (HEL). The dissociation constant Kd in assay [1] turned out to be 1700 nM.

B4: anti-CROP gastrobody G22 (designed binder, not shown: small tags and cut ends)
chain: B1 chain with H22L, P23Q, D24N, L25R, L47H, Y48D, L49F, F50M
As to B4, the Kd in assay [1] was approximately 50000 nM.

B5: anti-GTD gastrobody GT47 (designed binder, not shown: small tags and cut ends)
chain: DFVLDNEGNPLENGGTYYILSDYGRQLFGGIRAAPTGNERCPLTVVQSLFRNHRDKGIGTIISSPYRIRFIAEGHPLSLKFDSFAVIMLCVGIPTEWSVVEDLPEGPAVKIGENKDAMDGWFRLERVRPTSSTGNNYKLVFCPQQAEDDKCGDIGISIDHDDGTRRLVVSKNKPLVVQFQKLDKESL
As a reminder, the koff is the first-order rate constant of dissociation. A lower koff goes with slow dissociation. As usually defined, the kon is a measure of how fast the partners come together. Low values mean slower complex formation, high ones faster complex formation. Regarding B5, in assay [3], the “fold improvement of affinity against GT01” value is approximately 8 fold. In assay [4], this molecule gave a Kd of 10.3 nM, a koff of 0.022 s⁻¹ and an on-rate constant (kon) of 2.1e+06 M⁻¹ s⁻¹.

B6: anti-GTD gastrobody GT01 (designed binder, not shown: small tags and cut ends)
chain: DFVLDNEGNPLENGGTYYILSDYGRQLFGGIRAAPTGNERCPLTVVQSLFRNHRDKGIGTIISSPYRIRFIAEGHPLSLKFDSFAVIMLCVGIPTEWSVVEDLPEGPAVKIGENKDAMDGWFRLERVSDDEFNNYKLVFCPQQAEDDKCGDIGISIDHDDGTRRLVVSKNKPLVVQFQKLDKESL
notes: also called anti-GTD (GT01); His6-Thrombin site-SpyTag003-GT01
The term EC50 (read off the curve) denotes the concentration giving half of the maximal effect. A higher EC50 (read off the curve) goes with a need for much substance. In the case of B6, in assay [5], the binding result is “no binding (tested: 500 nM gastrobody)”. For the same molecule, the binding result in the assay with hen egg lysozyme (HEL) is “no binding (tested: 500 nM)”. In assay [6], this molecule showed a Kd of 85 nM, a koff of 0.036 s⁻¹ and an on-rate (kon) of 420000 M⁻¹ s⁻¹. In addition, in assay [7], the “EC50 (read off the curve)” value is approximately 7 nM. Further, in the assay with trypsin, the “EC50 (read off the curve)” value is approximately 20 nM.

B7: GT01 R63A (designed binder, not shown: small tags and cut ends)
chain: B6 chain with R67A
As to B7, in [8], binding was put at a Kd of 78.7 nM. Besides, the binding result in the assay with trypsin was “no binding (tested: 200 nM)”.

B8: anti-GTD gastrobody GT44 (designed binder, not shown: small tags and cut ends)
chain: B6 chain with S128N, D129P, D130S, E131N, F132G
For B8, in [4], binding was characterised by a dissociation constant (Kd) of 17.4 nM, the koff came to 0.022 s⁻¹ and the kon was 1.3e+06 M⁻¹ s⁻¹.

The values are drawn from patent US20240327495A1 (OXFORD UNIVERSITY INNOVATION, published 2024).
